Reference: patent US20250076311A1 (Chugai, published 2025)

Key:
[1] = target: T1, cynomolgus monkey FcγRIIIaS extracellular domain with C-terminal His-tag (cynomolgus monkey, UniProt Q8SPW2 21-206 at identity 1.00)); assay: SPR, KD(parent SG1)/KD(variant)
T1 construct: also called cyno FcgRIIIaS; cynoFcγRIIIaS
T1 chain: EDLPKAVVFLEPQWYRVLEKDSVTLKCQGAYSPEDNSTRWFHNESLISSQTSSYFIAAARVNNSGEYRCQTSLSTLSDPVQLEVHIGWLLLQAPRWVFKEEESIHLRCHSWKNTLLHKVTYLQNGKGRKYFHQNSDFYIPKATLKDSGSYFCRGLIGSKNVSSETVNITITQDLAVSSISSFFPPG

[2] = target: T2, human FcγRIIb extracellular domain with C-terminal His-tag (human, UniProt P31994 43-217); assay: SPR, KD(parent SG1)/KD(variant)
T2 construct: also called human FcgRIIb
T2 sequence: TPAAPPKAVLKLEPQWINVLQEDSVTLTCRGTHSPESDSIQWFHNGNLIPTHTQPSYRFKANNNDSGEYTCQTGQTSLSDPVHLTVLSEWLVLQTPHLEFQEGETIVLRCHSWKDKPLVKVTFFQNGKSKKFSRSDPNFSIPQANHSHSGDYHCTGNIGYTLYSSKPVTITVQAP

[3] = target: T3, human FcγRIIb extracellular domain with C-terminal His-tag (human, UniProt P31994 43-217); assay: SPR Biacore, antibody captured, FcgR analyte
T3 construct: also called human FcgRIIb; not shown: His-tag added to C-terminus
T3 sequence: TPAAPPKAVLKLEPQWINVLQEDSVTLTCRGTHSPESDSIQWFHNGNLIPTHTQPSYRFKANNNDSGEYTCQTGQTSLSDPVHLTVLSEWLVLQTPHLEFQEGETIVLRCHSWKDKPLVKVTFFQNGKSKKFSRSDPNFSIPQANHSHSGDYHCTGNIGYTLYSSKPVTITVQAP

[4] = target: T4, cynomolgus monkey FcγRIIa2 extracellular domain with C-terminal His-tag (cynomolgus monkey); assay: SPR Biacore, antibody captured, FcgR analyte
T4 construct: also called cyno FcgRIIa2; cynoFcγRIIa2; not shown: His-tag added to C-terminus
T4 chain: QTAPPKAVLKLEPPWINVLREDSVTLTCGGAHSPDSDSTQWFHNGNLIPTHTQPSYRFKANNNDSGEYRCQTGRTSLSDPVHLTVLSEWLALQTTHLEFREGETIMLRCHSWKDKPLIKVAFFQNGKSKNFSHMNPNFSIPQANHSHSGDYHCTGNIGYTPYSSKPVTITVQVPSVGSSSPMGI

[5] = target: T5, cynomolgus monkey FcγRIIIaS extracellular domain with C-terminal His-tag (cynomolgus monkey, UniProt A3RFZ7 21-206 (rhesus entry)); assay: SPR Biacore, antibody captured, FcgR analyte
T5 construct: also called cyno FcgRIIIaS; cynoFcγRIIIaS; not shown: His-tag added to C-terminus

[6] = target: T6, human FcγRIIaH extracellular domain with C-terminal His-tag (human, UniProt P12318 34-217); assay: SPR Biacore, antibody captured, FcgR analyte
T6 construct: also called human FcgRIIaH; FcγRIIa (type H); not shown: His-tag added to C-terminus
T6 sequence: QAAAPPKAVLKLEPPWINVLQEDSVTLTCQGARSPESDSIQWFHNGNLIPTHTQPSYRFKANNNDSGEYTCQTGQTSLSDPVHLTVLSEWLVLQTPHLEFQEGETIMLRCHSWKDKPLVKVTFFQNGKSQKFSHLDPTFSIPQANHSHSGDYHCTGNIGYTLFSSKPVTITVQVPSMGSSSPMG

[7] = target: T7, cynomolgus monkey FcγRIIa3 extracellular domain with C-terminal His-tag (cynomolgus monkey); assay: SPR Biacore, antibody captured, FcgR analyte
T7 construct: also called cyno FcgRIIa3; cynoFcγRIIa3; not shown: His-tag added to C-terminus
T7 chain: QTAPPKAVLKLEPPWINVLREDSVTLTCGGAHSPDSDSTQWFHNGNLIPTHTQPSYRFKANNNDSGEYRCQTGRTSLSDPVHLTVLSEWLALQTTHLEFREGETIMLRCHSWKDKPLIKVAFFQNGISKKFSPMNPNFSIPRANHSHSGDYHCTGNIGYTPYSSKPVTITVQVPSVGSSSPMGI

[8] = target: T8, human FcγRIIIaV extracellular domain with C-terminal His-tag (human, UniProt P08637 17-208); assay: SPR Biacore, antibody captured, FcgR analyte
T8 construct: also called human FcgRIIIaV; not shown: His-tag added to C-terminus
T8 sequence (P08637 17-208 F176V): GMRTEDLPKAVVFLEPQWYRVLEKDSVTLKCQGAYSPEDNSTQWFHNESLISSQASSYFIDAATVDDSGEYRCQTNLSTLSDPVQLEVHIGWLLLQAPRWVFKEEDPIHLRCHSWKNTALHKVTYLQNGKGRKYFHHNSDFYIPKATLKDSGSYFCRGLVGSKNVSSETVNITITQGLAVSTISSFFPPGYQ

Binder	KD fold (SG1 = 1) [1] [fold]	KD fold (SG1 = 1) [2] [fold]	Kd [3] [nM]	KD fold (SG1 = 1) [4] [fold]	KD fold (SG1 = 1) [5] [fold]	Kd [5] [nM]	Kd [6] [nM]	Kd [7] [nM]	Kd [4] [nM]	KD fold (SG1 = 1) [8] [fold]	KD fold (SG1 = 1) [6] [fold]
MS1032LO06-SG1012 (antibody, human IgG1, kappa, tied to rows r7/r25 by row order only; also called MS103205H795-SG1012; copies: 2 + 2) heavy: QVTLKESGPVLVKPTETLTLTCTVSGIDLSHDDISWVRQAPGKGLEWVGIISYAGSTYYASWAKGRLTISKDTSKNQVVLTMTNMDPVDTATYYCARGVPAYSHGGDLWGQGTLVTVSSASTKGPSVFPLAPSSKSTSGGTAALGCLVKDYFPEPVTVSWNSGALTSGVHTFPAVLQSSGLYSLSSVVTVPSSSLGTQTYICNVNHKPSNTKVDKKVEPKSCDKTHTCPPCPAPELLNGPSVFLFPPKPKDTLMISRTPEVTCVVVDVSEEDPEVKFNWYVDGVEVHNAKTKPREEQYNSTYRVVSVLTVLHQDWLNGKEYKCKVSNKALPKPIEKTISKAKGQPREPQVYTLPPSREEMTKNQVSLTCLVKGFYPSDIAVEWESNGQPENNYKTTPMVLDSDGSFFLYSKLTVDKSRWQQGNVFSCSVMHEALHAHYTQKSLSLSP light: DIVMTQSPATLSLSPGERATLSCTSSQSVYHANWLSWFQQKPGQPPKLLIYWASTLAYGVPSRFSGSGSGTDFTLTISSLQPEDAATYYCAGGYGGGRYAFGQGTKVEIKRTVAAPSVFIFPPSDEQLKSGTASVVCLLNNFYPREAKVQWKVDNALQSGNSQESVTEQDSKDSTYSLSSTLTLSKADYEKHKVYACEVTHQGLSSPVTKSFNRGEC	0.11	0.5									
M103205H795-MY179/M103202L889-SK1 (antibody, human IgG1, kappa, name in EU numbering, EU numbering) heavy: QVTLKESGPVLVKPTETLTLTCTVSGIDLSHDDISWVRQAPGKGLEWVGIISYAGSTYYASWAKGRLTISKDTSKNQVVLTMTNMDPVDTATYYCARGVPAYSHGGDLWGQGTLVTVSSASTKGPSVFPLAPSSKSTSGGTAALGCLVKDYFPEPVTVSWNSGALTSGVHTFPAVLQSSGLYSLSSVVTVPSSSLGTQTYICNVNHKPSNTKVDKKVEPKSCDKTHTCPPCPAPELLNGPSVFLFPPKPKDTLMISRTPEVTCVVVDVSEEDPEVKFNWYVDGVEVHNAKTKPREEQYNSTYRVVSVLTVLHQDWLNGKEYKCKVSNKALPAPIEKTISKAKGQPREPQVYTLPPSREEMTKNQVSLTCLVKGFYPSDIAVEWESNGQPENNYKTTPRVLDSDGSFFLYSKLTVDKSRWQQGNVFSCSVMHEALHNHYTQKSLSLSP light: DIVMTQSPATLSLSPGERATLSCTSSQSVYHANWLSWFQQKPGQPPKLLIYWASTLAYGVPSRFSGSGSGTDFTLTISSLQPEDAATYYCAGGYGGGRYAFGQGTKVEIKRTVAAPSVFIFPPSDEQLKSGTASVVCLLNNFYPREAKVQWKVDNALQSGNSQESVTEQDSKDSTYSLSSTLTLSKADYEKHKVYACEVTHQGLSSPVTKSFNRGEC			1200	2.8	0.13	2700	1100				
M103205H795-MY172/M103202L889-SK1 (antibody, human IgG1, kappa, name in EU numbering, EU numbering) heavy: QVTLKESGPVLVKPTETLTLTCTVSGIDLSHDDISWVRQAPGKGLEWVGIISYAGSTYYASWAKGRLTISKDTSKNQVVLTMTNMDPVDTATYYCARGVPAYSHGGDLWGQGTLVTVSSASTKGPSVFPLAPSSKSTSGGTAALGCLVKDYFPEPVTVSWNSGALTSGVHTFPAVLQSSGLYSLSSVVTVPSSSLGTQTYICNVNHKPSNTKVDKKVEPKSCDKTHTCPPCPAPELLNGPSVFLFPPKPKDTLMISRTPEVTCVVVDVSEEDPEVKFNWYVDGVEVHNAKTKPREEQYNSTYRVVSVLTVLHQDWLNGKEYKCKVSNKALPAPIEKTISKAKGQPREPQVYTLPPSREEMTKNQVSLTCLVKGFYPSDIAVEWESNGQPENNYKTTPGVLDSDGSFFLYSKLTVDKSRWQQGNVFSCSVMHEALHNHYTQKSLSLSP light: DIVMTQSPATLSLSPGERATLSCTSSQSVYHANWLSWFQQKPGQPPKLLIYWASTLAYGVPSRFSGSGSGTDFTLTISSLQPEDAATYYCAGGYGGGRYAFGQGTKVEIKRTVAAPSVFIFPPSDEQLKSGTASVVCLLNNFYPREAKVQWKVDNALQSGNSQESVTEQDSKDSTYSLSSTLTLSKADYEKHKVYACEVTHQGLSSPVTKSFNRGEC				1.8	0.17	3500	1700	1100	2800		
M103205H795-MY210/M103202L889-SK1 (antibody, human IgG1, kappa, name in EU numbering, substitutions in EU numbering, introduced into M103205H795-SG1) heavy: QVTLKESGPVLVKPTETLTLTCTVSGIDLSHDDISWVRQAPGKGLEWVGIISYAGSTYYASWAKGRLTISKDTSKNQVVLTMTNMDPVDTATYYCARGVPAYSHGGDLWGQGTLVTVSSASTKGPSVFPLAPSSKSTSGGTAALGCLVKDYFPEPVTVSWNSGALTSGVHTFPAVLQSSGLYSLSSVVTVPSSSLGTQTYICNVNHKPSNTKVDKKVEPKSCDKTHTCPPCPAPELLNGPSVFLFPPKPKDTLMISRTPEVTCVVVDVSDEDPEVKFNWYVDGVEVHNAKTKPREEQYNSTYRVVSVLTVLHQDWLNGKEYKCKVSNTALPKPIEKTISKAKGQPREPQVYTLPPSREEMTKNQVSLTCLVKGFYPSDIAVEWESNGQPENNYKTTPPVLDSDGSFFLYSKLTVDKSRWQQGNVFSCSVMHEALHNHYTQKSLSLSP light: DIVMTQSPATLSLSPGERATLSCTSSQSVYHANWLSWFQQKPGQPPKLLIYWASTLAYGVPSRFSGSGSGTDFTLTISSLQPEDAATYYCAGGYGGGRYAFGQGTKVEIKRTVAAPSVFIFPPSDEQLKSGTASVVCLLNNFYPREAKVQWKVDNALQSGNSQESVTEQDSKDSTYSLSSTLTLSKADYEKHKVYACEVTHQGLSSPVTKSFNRGEC				6.1	0.15					0.03	0.8
M103205H795-MY178/M103202L889-SK1 (antibody, human IgG1, kappa, name in EU numbering, EU numbering) heavy: QVTLKESGPVLVKPTETLTLTCTVSGIDLSHDDISWVRQAPGKGLEWVGIISYAGSTYYASWAKGRLTISKDTSKNQVVLTMTNMDPVDTATYYCARGVPAYSHGGDLWGQGTLVTVSSASTKGPSVFPLAPSSKSTSGGTAALGCLVKDYFPEPVTVSWNSGALTSGVHTFPAVLQSSGLYSLSSVVTVPSSSLGTQTYICNVNHKPSNTKVDKKVEPKSCDKTHTCPPCPAPELLNGPSVFLFPPKPKDTLMISRTPEVTCVVVDVSEEDPEVKFNWYVDGVEVHNAKTKPREEQYNSTYRVVSVLTVLHQDWLNGKEYKCKVSNKALPAPIEKTISKAKGQPREPQVYTLPPSREEMTKNQVSLTCLVKGFYPSDIAVEWESNGQPENNYKTTPQVLDSDGSFFLYSKLTVDKSRWQQGNVFSCSVMHEALHNHYTQKSLSLSP light: DIVMTQSPATLSLSPGERATLSCTSSQSVYHANWLSWFQQKPGQPPKLLIYWASTLAYGVPSRFSGSGSGTDFTLTISSLQPEDAATYYCAGGYGGGRYAFGQGTKVEIKRTVAAPSVFIFPPSDEQLKSGTASVVCLLNNFYPREAKVQWKVDNALQSGNSQESVTEQDSKDSTYSLSSTLTLSKADYEKHKVYACEVTHQGLSSPVTKSFNRGEC			1300		0.17	3000				0.15	0.6
MS1032LO19-SG1071 (antibody, tied to rows r14/r32 by row order only; also called MS103240H795-SG1071; copies: 2 + 2) heavy: QVQLVESGGGLVQPGGSLRLSCAVSGIDLSHDDISWVRQAPGKGLEWVSIISYAGSTYYASWAKGRLTISKDTSKNQVVLTMTNMDPVDTATYYCARGVPAYSHGGDLWGQGTLVTVSSASTKGPSVFPLAPSSKSTSGGTAALGCLVKDYFPEPVTVSWNSGALTSGVHTFPAVLQSSGLYSLSSVVTVPSSSLGTQTYICNVNHKPSNTKVDKKVEPKSCDKTHTCPPCPAPELLNGPSVFLFPPKPKDTLMISRTPEVTCVVVDVSDEDPEVKFNWYVDGVEVHNAKTKPREELYNSTYRVVSVLTVLHRDWLNGKEYKCKVSNKALPKPIEKTISKAKGQPREPQVYTLPPSREEMTKNQVSLTCLVKGFYPSDIAVEWESNGQPENNYKTTPPVLDSDGSFFLYSKLTVKKSRWQQGNVFSCSVLHEALHAHTTRKELSLSP light: DIVMTQSPATLSLSPGERATLSCTTSQSVYHENWLSWFQQKPGQPPKLLIYWASTLAYGVPSRFSGSGSGTDFTLTISSLQPEDAATYYCAGGYGGGRYAFGQGTKVEIKRTVAAPSVFIFPPSDEQLKSGTASVVCLLNNFYPREAKVQWKVDNALQSGNSQESVTEQDSKDSTYSLSSTLTLSKADYEKHKVYACEVTHQGLSSPVTKSFNRGEC	0.07	5.7									
